Assay results reported in US6258776A, “Calcium-regulated kinase” (priority 1997, dated 2001).
Entries after “also recorded” stand apart in the source; their conditions may differ.

Assays:
HA-Ndr WT [1] = test: A23187 treatment of COS-1 cells co-expressing HA-Ndr WT and S100B, Ndr kinase activity; assay type: cell-based; details: 20 μM A23187
Procedure: In order to provide direct evidence that Ca^2+ /S100B regulates Ndr activity in vivo, COS-1 cells are co-transfected with expression constructs for Ndr and S100B (pECE-HA-Ndr, which expresses haemaglutinin epitope-tagged Ndr from an SV40 promoter, and pECE-S100B). Two Ndr constructs are used, expressing either wild-type Ndr (Ndr WT) or Ndr lacking the previously identified S100B binding domain (Ndr Δ65-81).Then, the cells are treated for various lengths of time with 20 μM A23187, a calcium ionophore.

HA-Ndr WT [2] = details: 10 nM, 1 h
Procedure: COS-1 cells expressing HA-Ndr WT (as in Example 5) are treated either with solvent alone (Control) or with a panel of cell permeable protein phosphatase inhibitors. The cells are then extracted, HA-Ndr is immunoprecipitated with the anti-HA mAb 12CA5, and the kinase activity of Ndr measured as before, using the peptide substrate.

[3] = test system: protein phosphatase 1 (PP1); details: 10 nM calyculin A; cited from earlier work
PP2A = details: 10 nM calyculin A; cited from earlier work
GST-Ndr [4] = molecular target: T1, GST-Ndr (Homo sapiens, UniProt Q15208); test: Ndr peptide substrate phosphorylation assay; assay type: biochemical; details: 0.5 mg/ml peptide, 3 h at 30° C., KKRNRRLSVA = 100%
T1 construct: made in house
Procedure: When incubated in vitro with Mg-ATP, Ndr incorpora tes phosphate by an intramolecular autophosphorylation mechanism (Millward, T. A., et al., (1995) Proc. Natl. Acad. Sci. USA 92, 5022-5026). […] To develop a convenient in vitro kinase assay for Ndr, an assembled library of synthetic peptides is screened for potential Ndr substrates. 5 μg GST-Ndr WT or GST-Ndr K118A (Miliward, T. A., et al., (1995) Proc. Natl. Acad. Sci. USA 92, 5022-5026), immobilised on 2.5 μl glutathione-agarose beads (Sigma), is assayed in a 25 μl reaction containing 50 mM Tris-HCl pH 7.5, […] MgCl2, 1 mM dithiothreitol, 100 μM [γ-^32 P] ATP (0.3 μCi/μl) and 0.5 mg/ml peptide. After incubation at 3 h at 30° C. (during which time phosphate incorporation into peptides is linear), aliquots of the reaction are spotted onto 2 cm^2 squares of P81 phosphocellulose paper (Whatman), which are then washed 5×5 min in 1% phosphoric acid and once in acetone, before counting in a liquid scintillation counter.
Several peptides are identified which could serve as Ndr substrates (Table 1; SEQ. ID. No. 1 to 31). By comparing the efficiency of phosphorylation of the various peptides, several conclusions regarding the substrate specificity of Ndr can be drawn. […] Secondly, most of the peptides which are detectably phosphorylated contained a basic amino acid at position -6 relative to the phosphoaccepting serine. […] A basic amino acid at -6 is however not sufficient for substrate recognition, since this peptide is also not phosphorylated. Thirdly, a basic residue at -5 appeared to be also important, although not essential, for efficient phosphorylation by Ndr. Basic amino acids at -3, -2 and -7 are also important. Proline at +1 appears to be inhibitory, whilst the presence of amino acids carboxy-terminal to the phosphoacceptor is important, removal of the residue at +2 reducing activity. The best Ndr substrate from these series of peptides is ([…], SEQ. ID. No. 1), and this peptide is used for Ndr kinase assays in subsequent experiments.

GST-Ndr [5] = molecular target: T1, GST-Ndr; test: GST-Ndr peptide kinase assay with calcium-binding proteins; assay type: biochemical; details: added together with Ca^2+; 60 min, 30° C.
Procedure: 1 μg GST-Ndr WT or GST-Ndr K118A, either in solution or immobilised on glutathione-agarose beads, is assayed in a 20 μl reaction containing 20 mM Tris-HCl pH 7.5, 5 mM MgCl2, 1 mM dithiothreitol, 100 μM [γ-^32 P] […] Reactions are supplemented with either 2 mM EGTA or various concentrations of CaCl2. Bovine CaM, bovine S100B (both from Sigma) or recombinant calcium-binding proteins. After incubation at 30° C. for 60 min, aliquots of the reaction are spotted on to P81 phosphocellulose paper and counted as above.
In brief, coding regions are cloned into the PGEMEX expression vector (Promega) and resultant plasmids used to transform E. coli BL-21 LysS cells. After induction, S100 proteins are purified by ammonium sulphate precipitation followed by Ca^2+ -dependent phenyl-Sepharose chromatography.
The proteins are added together with Ca^2+ into GST-N dr peptide kinase assays. The proteins tested comprised S100A1 (S100α), S100A2 (S100L), S100A4 (CAPL), S100A6 (calcyclin) and S100B (S100β); α-parvalbumin is included as a negative control.
In order to estimate the binding affinity of S100B for Ndr, kinase assays are performed in which GST-Ndr is mixed with various concentrations of purified bovine S100B homodimer, in the presence or absence of calcium.
To determine whether activation of Ndr by S100B occurs at physiological Ca^2+ concentrations, Ndr activity is assayed with or without added S100B over a range of Ca^2+ concentrations.

Ndr = details: transphosphorylation; cited from earlier work
S100B = test: co-immunoprecipitation of Ndr with anti-S100B from COS-1 cells; assay type: cell-based; details: co-expressed with S100B
Procedure: For expression of Ndr and S100B in mammalian cells, the cDNAs encoding Ndr and S100B are cloned into the pECE vector, which directs expression driven by an SV40-derived promoter. In addition, an amino-terminal truncation mutant of Ndr lacking the first 84 amino acids (1-84) is used.
The plasmids encoding Ndr and S100B are transfected into COS-1 cells, either alone or in combination. Seventy-two hours later, cells extracts are prepared and immunoprecipitated with an antibody recognising S100B. In an anti-Ndr western blot of the cell extracts, it is shown that Ndr is expressed an expected.

[6] = immune complex kinase assay, basal kinase activity of Ndr mutants; assay type: biochemical; details: compared with wild-type Ndr
Procedure: In immune complex kinase assays and autophosphorylation assays (see below), COS-1 cells are transfected as described above or with pECE-Ndr-K118A. After 72 h, cells are washed with ice-cold PBS and lysed in lysis buffer (20 mM Tris-HCl pH 8.0, 150 mM NaCl, 1% (v/v) NP-40, 10% (v/v) glycerol, 5 mM EDTA, 0.5 mM EGTA, 0.5 mM phenylmethyl-sulfonyl fluoride, 4 μM leupeptin, 1 mM benzamidine, 1 μM microcystin and 1 mM Na3 VO4). Lysates are centrifuged at 14,000 g for 20 min. Duplicate aliquots of supernatant (250 μg, 2.5 mg/ml) are incubated for 2 h at 0° C. with 10 μg/ml Ab^1-465. Immune complexes are precipitated by addition of 2 μl protein A-Sepharose (Pharmacia) and mixing for 1 h. The beads are then washed twice with lysis buffer, once with lysis buffer containing 1 M NaCl, with lysis buffer again, and finally twice with 20 mM Tris-HCl pH 7.5. Beads are resuspended in 30 μl buffer containing 20 mM Tris-HCl pH 7.5, 10 mM MgCl2, 100 μM CaCl2, 1 mM dithiothreitol, 100 μM [γ-^32 P] ATP (0.5 μCi/μls), 1 mM Ndr substrate peptide ([…], SEQ. ID. No. 1), 1 μM cAMP-dependent protein kinase inhibitor peptide (PKI; purchased from Bachem, Bubendorf, Swit zerland), 4 μM leupeptin, 1 mM benzamidine, 1 μM microcystin and, in some assays, 20 μM bovine S100B. After 60 min at 30° C., phosphate incorporation into the peptide is quantitated as described above. […]

calmodulin (CaM-agarose) = test: binding of Ndr and deletion mutants from COS-1 cell lysates to CaM-agarose; details: lysates supplemented with Ca^2+
Text: In addition, the ability of untagged Ndr to interact with CaM is investigated. COS-1 cells are transfected with pECE or with derivative plasmids encoding wild-type Ndr, NdrΔ65-81 or NdrΔ1-84 (Millward, T. A., et al., (1995) Proc. Natl. Acad. Sci. USA 92, 5022-5026) using DEAE-dextran (Seed, B. and Aruffo, A. (1987) Proc. Natl. Acad. Sci. USA 84, 3365-3369). Seventy-two hours after transfection, cells are scraped into ice-cold phosphate-buffered saline (PBS), spun down, and disrupted in buffer A (TBS containing 1 mM dithiothreitol, 0.5 mM phenylmethylsulfonyl fluoride, 4 μM leupeptin and 1 mM benzamidine) using a tight-fitting all-glass dounce homogenizer. Extracts (20 μg) are adjusted to 1 mg/ml, supplemented with either 1 mM CaCl2 or 1 mM EGTA and then mixed for 2 h with 6 μl CaM-agarose. After washing three times with 1 ml of the corresponding binding buffer, the beads are eluted with buffer A containing 5 mM EGTA. Equal portions of the unbound and EGTA-eluted fractions are analysed by immunoblofting with anti-Ndr antibodies.
Samples are separated by SDS-PAGE and electroblotted to Immobilon-P membranes (Millipore). Blots are incubated in blocking buffer (50 mM Tris-HCl pH 7.5, 150 mM NaCl, 1% (v/v) Triton X-1 00, 0.5% (v/v) Tween 20, 5% (w/v) skim milk powder) and then probed for 2 h with primary antibodies diluted in the same buffer. Ndr and GST-Ndr are detected with Ab^452-465 at 4 μg/ml (Millward, T. A., et al., Op. Cit.); GST is detected with an anti-GST antiserum (1 :1000 dilution). Bound antibodies are detected using horseradish peroxidase-conjugated donkey anti-rabbit IgG antibodies and ECL substrates (Amersham).
To verify whether this domain of Ndr is indeed responsible for its interaction with CaM, deletion mutants of Ndr are expressed in COS-1 cells and tested for CaM binding as above. […] In lysates supplemented with Ca^2 , deletion of amino acids 65-81 cause a large reduction in CaM binding (to ~10% of the level of wild-type binding) as assessed by western blotting.

T1 sequence (Q15208 whole entry): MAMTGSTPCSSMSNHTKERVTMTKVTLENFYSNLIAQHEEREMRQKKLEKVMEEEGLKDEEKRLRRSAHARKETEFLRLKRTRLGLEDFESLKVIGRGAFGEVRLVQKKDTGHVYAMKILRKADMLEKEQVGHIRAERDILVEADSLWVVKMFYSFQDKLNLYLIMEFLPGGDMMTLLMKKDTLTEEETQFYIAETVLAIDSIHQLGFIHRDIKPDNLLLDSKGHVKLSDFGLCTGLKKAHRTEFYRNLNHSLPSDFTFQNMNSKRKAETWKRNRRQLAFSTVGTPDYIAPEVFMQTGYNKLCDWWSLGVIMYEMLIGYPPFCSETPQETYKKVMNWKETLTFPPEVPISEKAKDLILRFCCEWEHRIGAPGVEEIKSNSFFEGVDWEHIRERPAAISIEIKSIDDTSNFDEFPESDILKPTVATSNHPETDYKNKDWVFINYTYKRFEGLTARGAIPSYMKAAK

CNc1ccc2oc(C[C@H]3O[C@@]4(CC[C@H]3C)O[C@H]([C@H](C)C(=O)c3ccc[nH]3)[C@H](C)C[C@H]4C)nc2c1C(=O)O [A23187]
activation of HA-Ndr (HA-Ndr WT [1]): activation of HA-Ndr WT

COC[C@@H]([C@H](O)[C@H](O)C(=O)NCC[C@H](C)c1nc(/C=C/C[C@@H]2O[C@]3(C[C@@H](O)[C@@H]2C)O[C@H]([C@H](C[C@H](O)[C@H](C)[C@H](O)[C@H](C)/C=C(C)/C(C)=C/C=C/C(C)=C\C#N)OC)[C@H](OP(=O)(O)O)C3(C)C)co1)N(C)C [calyculin A]
activation of Ndr (HA-Ndr WT [2]): ~ 4 fold
inhibition of PP1 [3]: ~ 50%
inhibition of PP2A (PP2A): ~ 50%

AARNRTLSVA [SEQ. ID. No. 7]
Relative Ndr Activity (GST-Ndr [4]): 0%

KARNRRLSVA (LARNRRLSVA) [SEQ. ID. No. 2]
Relative Ndr Activity (GST-Ndr [4]): 39%

KKLNRRLSVA [SEQ. ID. No. 3]
Relative Ndr Activity (GST-Ndr [4]): 18%

KKRNARLSVA [SEQ. ID. No. 4]
Relative Ndr Activity (GST-Ndr [4]): 15%

KKRNRALSVA [SEQ. ID. No. 5]
Relative Ndr Activity (GST-Ndr [4]): 30%

KKRNRRLSVA [SEQ. ID. No. 1]
Relative Ndr Activity (GST-Ndr [4]): 100%

KKRNRTLSPA [SEQ. ID. No. 10]
Relative Ndr Activity (GST-Ndr [4]): 0%

KKRNRTLSV [SEQ. ID. No. 8]
Relative Ndr Activity (GST-Ndr [4]): 24%

KKRNRTLSVA [SEQ. ID. No. 6]
Relative Ndr Activity (GST-Ndr [4]): 60%

KKRNRTLTV [SEQ. ID. No. 9]
Relative Ndr Activity (GST-Ndr [4]): 0%

S100A1: S100 family protein, phylogenetically the closest known relative of S100B
increase in Ndr kinase activity (GST-Ndr [5]): 2-3 fold

casein
substrate of Ndr (Ndr): not substrates of Ndr

myelin basic protein
substrate of Ndr (Ndr): not substrates of Ndr

Δ1-84: Ndr deletion mutant lacking the complete amino terminal domain
co-immunoprecipitation with anti-S100B (S100B): abolishes co-immunoprecipitation
basal kinase activity [6]: only slightly reduced; also recorded: reduced basal kinase activity
binding to CaM-agarose (calmodulin (CaM-agarose)): no longer detectable
